Read-outs that look alike come from different tables or passages of the source.
Columns and labels:
in vivo = experiment: in vivo; parameters: species or system ddY mice; details: male, ddY, mouse, iv, 37 kBq/100 uL, total radioactivity
Procedure: Biodistribution experiments were performed after an intravenous administration of each tracer solution diluted in saline (37 kBq/100 μL) to 6-week-old male ddY mice (weight, 27–32 g, Japan SLC, Inc., Hamamatsu, Japan). Four mice were sacrificed at each time point for each compound at 10, 60, and 180 min post-injection. The tissues of interest were dissected and weighed. Complete left femurs were isolated as representative bone samples, radioactivity counts were determined using an auto well gamma counter (ARC-7010, ALOKA Co., Ltd.), and counts were corrected for the background radiation and physical decay that occurred during counting.

[1] = Hydroxyapatite-binding assay; details: hydroxyapatite beads 1, 2.5, 10, 25 mg/mL in Tris/HCl-buffered saline 50 mM pH 7.4, ligand 19.5 µM, 1 h, room temperature, gamma counter, four samples; Figure 2
Procedure: Hydroxyapatite-binding assays were performed according to procedures described previously. Briefly, hydroxyapatite beads (Bio-Gel; Bio-Rad, Hercules, CA, USA) were suspended in Tris/HCl-buffered saline (50 mM, pH 7.4) at 1 mg/mL, 2.5 mg/mL, 10 mg/mL, and 25 mg/mL. For the solutions of [^67Ga]Ga-HBED-CC-(D-Glu)14, [^67Ga]Ga-HBED-CC-(DL-Glu)14, and [^67Ga]Ga-HBED-CC-(D-Glu-L-Glu)7, the ligand concentrations were adjusted to 19.5 µM by adding the corresponding HBED-CC conjugated Glu peptides. A solution of each [^67Ga]Ga-HBED-CC-(D-Glu)14, [^67Ga]Ga-HBED-CC-(DL-Glu)14, and [^67Ga]Ga-HBED-CC-(D-Glu-L-Glu)7 (200 µL each) was added to 200 μL of the hydroxyapatite suspension, and the samples were gently shaken for 1 h at room temperature. After centrifugation at 10,000× g for 5 min, the radioactivity of the supernatants was measured using an auto well gamma counter (ARC-7010B, ALOKA Co., Ltd., Tokyo, Japan). […] The ratios of binding were determined as follows:Hydroxyapatite binding (%) = (1 − [sample supernatant radioactivity]/[control supernatant radioactivity]) × 100

[2] = hydroxyapatite beads; Figure 2; cited from earlier work
Procedure: To determine the affinity of the compounds for hydroxyapatite, the hydroxyapatite-binding assay was performed. The hydroxyapatite-binding rates of [^67Ga]Ga-HBED-CC-(L-Glu)14, [^67Ga]Ga-HBED-CC-(D-Glu)14, [^67Ga]Ga-HBED-CC-(DL-Glu)14, and [^67Ga]Ga-HBED-CC-(D-Glu-L-Glu)7 are illustrated in Figure 2. The binding profiles of each tracer were similar.

| Molecule | tissue uptake dose at 10 min (in vivo) | tissue uptake dose at 1 h (in vivo) | tissue uptake dose at 3 h (in vivo) | Hydroxyapatite binding profile (in words) [1] | Hydroxyapatite binding profile (in words) [2] |
| --- | --- | --- | --- | --- | --- |
| O=C(O)CCc1ccc(O)c(CN(CCN(CC(=O)O)Cc2cc(CCC(=O)N[C@H](CCC(=O)O)C(=O)N[C@H](CCC(=O)O)C(=O)N[C@H](CCC(=O)O)C(=O)N[C@H](CCC(=O)O)C(=O)N[C@H](CCC(=O)O)C(=O)N[C@H](CCC(=O)O)C(=O)N[C@H](CCC(=O)O)C(=O)N[C@H](CCC(=O)O)C(=O)N[C@H](CCC(=O)O)C(=O)N[C@H](CCC(=O)O)C(=O)N[C@H](CCC(=O)O)C(=O)N[C@H](CCC(=O)O)C(=O)N[C@H](CCC(=O)O)C(=O)N[C@H](CCC(=O)O)C(=O)O)ccc2O)CC(=O)O)c1 [[67Ga]Ga-HBED-CC-(D-Glu)14, metal not drawn] | 0.57 %ID | 0.51 %ID | 0.76 %ID | similar |  |
| O=C(O)CCc1ccc(O)c(CN(CCN(CC(=O)O)Cc2cc(CCC(=O)N[C@H](CCC(=O)O)C(=O)N[C@@H](CCC(=O)O)C(=O)N[C@H](CCC(=O)O)C(=O)N[C@@H](CCC(=O)O)C(=O)N[C@H](CCC(=O)O)C(=O)N[C@@H](CCC(=O)O)C(=O)N[C@H](CCC(=O)O)C(=O)N[C@@H](CCC(=O)O)C(=O)N[C@H](CCC(=O)O)C(=O)N[C@@H](CCC(=O)O)C(=O)N[C@H](CCC(=O)O)C(=O)N[C@@H](CCC(=O)O)C(=O)N[C@H](CCC(=O)O)C(=O)N[C@@H](CCC(=O)O)C(=O)O)ccc2O)CC(=O)O)c1 [[67Ga]Ga-HBED-CC-(D-Glu-L-Glu)7, metal not drawn] | 0.32 %ID | 0.84 %ID | 0.48 %ID | similar |  |
| [^67Ga]Ga-N,N′-bis-[2-hydroxy-5-(carboxyethyl)benzyl]ethylenediamine-N,N′-diacetic acid-conjugated (L-Glu)14 [[^67Ga]Ga-HBED-CC-(L-Glu)14] |  |  |  |  | similar |

— article PMC11396517, “Differences in the Renal Accumulation of Radiogallium-Labeled (Glu)14 Peptides Containing Different Optical Isomers of Glutamic Acid” (Molecules, 2024)
